Reference: the Immune Epitope Database (IEDB)

Key:
HLA-B*07:02 = test: IEDB peptide-MHC binding, purified MHC/competitive/fluorescence; filed as Kd, often an IC50 or EC50 that approximates it; ≥ and ≤ were set here for values at or beyond the usual limits of such assays; conditions: source organism: Influenza A virus (A/swine/Italy/1509-6/97(H1N1))
HLA-C*14:02 = test: IEDB peptide-MHC binding, purified MHC/direct/fluorescence; filed as Kd, often an IC50 or EC50 that approximates it; ≥ and ≤ were set here for values at or beyond the usual limits of such assays; conditions: source organism: Influenza A virus (A/swine/Italy/1509-6/97(H1N1))
HLA-C*06:02 = test: as above; conditions: source organism: Influenza A virus (A/swine/Italy/1509-6/97(H1N1))
HLA-B*46:01 [1] = test: IEDB peptide-MHC binding, purified MHC/competitive/fluorescence; filed as Kd, often an IC50 or EC50 that approximates it; ≥ and ≤ were set here for values at or beyond the usual limits of such assays; conditions: source organism: Escherichia coli 536
HLA-C*04:01 = test: IEDB peptide-MHC binding, purified MHC/direct/fluorescence; filed as Kd, often an IC50 or EC50 that approximates it; ≥ and ≤ were set here for values at or beyond the usual limits of such assays
HLA-C*12:03 = test: as above
HLA-C*03:03 = test: as above
HLA-A*02:03 = test: IEDB peptide-MHC binding, purified MHC/competitive/radioactivity; filed as Kd, often an IC50 or EC50 that approximates it; ≥ and ≤ were set here for values at or beyond the usual limits of such assays; conditions: source organism: Vaccinia virus WR
HLA-A*02:02 = test: as above; conditions: source organism: Vaccinia virus WR
HLA-A*02:06 = test: as above; conditions: source organism: Vaccinia virus WR
HLA-A*69:01 = test: IEDB peptide-MHC binding, purified MHC/direct/fluorescence; filed as Kd, often an IC50 or EC50 that approximates it; ≥ and ≤ were set here for values at or beyond the usual limits of such assays
HLA-C*05:01 = test: as above; conditions: source organism: Variola virus
HLA-A*11:01 = test: IEDB peptide-MHC binding, purified MHC/competitive/fluorescence; filed as Kd, often an IC50 or EC50 that approximates it; ≥ and ≤ were set here for values at or beyond the usual limits of such assays; conditions: source organism: Escherichia coli APEC O1
HLA-B*27:05 = test: as above; conditions: source organism: Escherichia coli APEC O1
HLA-B*15:17 = test: IEDB peptide-MHC binding, purified MHC/direct/fluorescence; filed as Kd, often an IC50 or EC50 that approximates it; ≥ and ≤ were set here for values at or beyond the usual limits of such assays; conditions: source organism: Bacillus anthracis
HLA-B*40:01 = test: as above; conditions: source organism: Bacillus anthracis
HLA-B*48:01 = test: as above; conditions: source organism: Bacillus anthracis
HLA-B*46:01 [2] = test: as above; conditions: source organism: Bacillus anthracis
HLA-A*01:01 = test: as above; conditions: source organism: Bacillus anthracis
HLA-A*31:01 = test: as above; conditions: source organism: Bacillus anthracis
HLA-B*57:01 = test: as above; conditions: source organism: Bacillus anthracis
HLA-B*51:01 = test: as above; conditions: source organism: Bacillus anthracis
HLA-B*18:01 = test: as above; conditions: source organism: Bacillus anthracis
HLA-B*15:01 = test: as above; conditions: source organism: Bacillus anthracis
HLA-B*58:01 = test: as above; conditions: source organism: Bacillus anthracis
HLA-A*03:01 = test: as above; conditions: source organism: Bacillus anthracis
HLA-A*02:01 = test: as above; conditions: source organism: Bacillus anthracis
HLA-A*26:01 = test: as above; conditions: source organism: Influenza A virus (A/chicken/Beijing/nl/2002(H9N2))
HLA-A*26:02 = test: as above; conditions: source organism: Influenza A virus(A/swine/Shandong/fNY/2003(H9N2))
HLA-C*08:02 = test: as above
HLA-A*29:02 = test: IEDB peptide-MHC binding, purified MHC/competitive/fluorescence; filed as Kd, often an IC50 or EC50 that approximates it; ≥ and ≤ were set here for values at or beyond the usual limits of such assays; conditions: source organism: Bacillus anthracis str. A0488
HLA-A*24:03 = test: IEDB peptide-MHC binding, purified MHC/direct/fluorescence; filed as Kd, often an IC50 or EC50 that approximates it; ≥ and ≤ were set here for values at or beyond the usual limits of such assays; conditions: source organism: Mycobacterium tuberculosis
[3] = source organism: Escherichia coli 536
[4] = source organism: Yellow fever virus

Q: What does the source list for ATYQRTRAL?
A: Kd (HLA-B*07:02): 197 nM; Kd (HLA-C*14:02): 246 nM; Kd (HLA-C*06:02): 75 nM

Q: For FMFDSDEAM, which Kd (HLA-B*46:01 [1]) is on record?
A: Its Kd is 29.2 nM.

Q: And the Kd (HLA-C*04:01; [3])?
A: The Kd was at least 20000 nM.

Q: And the Kd (HLA-C*12:03; [3])?
A: The Kd was 174 nM.

Q: And the Kd (HLA-C*03:03; [3])?
A: The Kd was 5 nM.

Q: Which results are given for KVDDTFYYV?
A: Kd (HLA-A*02:03): ≥ 78100 nM; Kd (HLA-A*02:02): 1850 nM; Kd (HLA-A*02:06): ≥ 34300 nM; Kd (HLA-A*69:01; source organism: Camelpox virus CMS): 2 nM; Kd (HLA-C*03:03; source organism: Variola virus): ≥ 20000 nM; Kd (HLA-C*05:01): 3 nM

Q: With TPRIANRLL as the sequence, how does the Kd (HLA-A*11:01) read?
A: Its Kd is 1370 nM.

Q: What about the Kd (HLA-B*27:05) of the same sequence?
A: The Kd was at least 20000 nM.

Q: What about the Kd (HLA-B*15:17) of the same sequence?
A: Its Kd is at least 20000 nM.

Q: What about the Kd (HLA-B*40:01) of the same sequence?
A: Its Kd is at least 20000 nM.

Q: What about the Kd (HLA-A*69:01; source organism: Bacillus anthracis) of the same sequence?
A: Its Kd is at least 20000 nM.

Q: And the Kd (HLA-B*48:01)?
A: The Kd was at least 20000 nM.

Q: And the Kd (HLA-B*46:01 [2])?
A: Its Kd is at least 20000 nM.

Q: What about the Kd (HLA-A*01:01) of the same sequence?
A: Its Kd is at least 20000 nM.

Q: What about the Kd (HLA-A*31:01) of the same sequence?
A: Its Kd is at least 20000 nM.

Q: And the Kd (HLA-B*57:01)?
A: Its Kd is at least 20000 nM.

Q: And the Kd (HLA-B*51:01)?
A: The Kd was at least 20000 nM.

Q: And the Kd (HLA-B*18:01)?
A: Its Kd is at least 20000 nM.

Q: And the Kd (HLA-B*15:01)?
A: The Kd was at least 20000 nM.

Q: What about the Kd (HLA-B*58:01) of the same sequence?
A: The Kd was at least 20000 nM.

Q: And the Kd (HLA-A*03:01)?
A: Its Kd is at least 20000 nM.

Q: What about the Kd (HLA-A*02:01) of the same sequence?
A: Its Kd is at least 20000 nM.

Q: For TTVDHMAII, which Kd (HLA-A*26:01) is on record?
A: Its Kd is 67.8 nM.

Q: What about the Kd (HLA-A*26:02) of the same sequence?
A: Its Kd is 12 nM.

Q: How did the Kd (HLA-C*12:03; [4]) turn out when YMPDVLEKL was run?
A: The Kd was at least 20000 nM.

Q: And the Kd (HLA-C*03:03; [4])?
A: Its Kd is at least 20000 nM.

Q: And the Kd (HLA-C*08:02; [4])?
A: The Kd was at least 20000 nM.

Q: For YTVQGAGLM, which Kd (HLA-A*29:02) is on record?
A: Its Kd is 26 nM.

Q: What about the Kd (HLA-C*08:02; source organism: Bacillus anthracis str. A0488) of the same sequence?
A: Its Kd is at least 20000 nM.

Q: What does the source list for YYIIETEHL?
A: Kd (HLA-C*04:01; source organism: Mycobacterium tuberculosis H37Ra): ≥ 20000 nM; Kd (HLA-A*24:03): 0.2 nM
